Molecular target: citrullinated human fibrinogen peptide, residues 36-52 (cit-fib) (human)
Test: reactivity test against citrullinated peptide; arbitrary units relative to a serum pool standard; antibody at 5 ug/ml

reactivity (Au/ml at 5 ug/ml): 21 Au/ml
B1: ACPA11 (antibody, V domains shown)
VH: HLQLQESGPKLVKTSETLSLNCSVSRESIVRNDKFWGWVRQPPGKGLEWIGSINPLGRTFYTTSLKDRIRISFDTSEGYFSLSVASVTAADTAIYYCATDGEGVLFDEWSQGTLVTVSS
VL: QPVMTQPPSACGTPGQRVTIPCSGNTSNIGYNIVNWYQQVPGTAPKLLIYDNDKRPSGVPDRFSASKSVTSASLVISGLQSADEADYYCAVWDDDLSGVVIGEGTKLTVL

Reference: patent publication US20160159922A1
